Results taken from the nanobody polyreactivity screen of Harvey et al. (2022).

Test: yeast display, Sf9 membrane polyspecificity reagent, FACS + sequencing; frameworks hold sequencing errors
Method in brief: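 A synthetic nanobody library was expressed on Saccharomyces cerevisiae BJ5465 by galactose induction for 36–48 hours. The library was stained for 1 hour at 4 °C with 10% biotinylated, detergent-solubilized Sf9 membrane reagent and enriched with streptavidin microbeads before FACS. Low and high (top ~1%) gates were set on anti-HA fluorescence for expression and streptavidin fluorescence for reagent binding, and each polyreactivity label reflects the gate of origin.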

| Sequence | polyreactivity (PSR sort gate) |
| --- | --- |
| QVQLVESGGGLVQAGGSLRLSCAASGFTFSVYAMGWSRQAPGKERELVAAITSDGITNYADSVKGRFTISRDNAKNTVYLQMNSLKPEDTAVYYCNADPGYVRGYDYWGQGTQVTVSS | low polyreactivity |
| QVQLVDSGGGLVQAAGSLRLSCAASGSIFIFNTMGWYRQAPGKESELVASISSSGSTYYADSVKGRFTISRDNAKNTVYLQMKSLKPEDTAVYYCAATYYRPAYYGSYYYWGQGTQVTVSS | low polyreactivity |
| QVQLVESVGGLVQAGGSLRLSCAASGFTFVGNTMGWYRQAPGKERELVAAIRGRDGRTYYADSVKGRFTISRDNAKNTVYLQMNSLKPEDTAVYYCNVDVKYSVRSEFDFWGQGTQVTVSS | low polyreactivity |
| QVQLVESGGGLVQAGGSLRLSCAASGFIFGNYVMGWYRPAPGKERELVAAISESGSRTYYADSVKGRFTISRDNAKNTVYLQMNSLKPEDTAVYYCAAALFSYYGEYDYWGQGTQVTVSS | low polyreactivity |
| QVQLVESGGGLVQAGGSLRLSCAASGITFISYVKGWYRQAPGKEREVVAAISKRGGSTYYADSVKGRFTISRDNAKNTVYFKINSLKAEDTAVYYCAAKTIPWSVGYDYWGQGTQVTVSS | high polyreactivity |
| QVQLVESGGGLVQAGGSLRLSCAASGRIFGTYAMGWYRQAPGKERELVAAITRDGSTNYADSVKGRFTISRDNAKNTVYLQMYSLKTEDSAVYYCAAGYLPDPDDYDSWGQGTQVNVSS | low polyreactivity |
| QVQLVESGGGLVQAGGSLRLSCDASGSTFPKYAMGWYRQAPGKEWELVASISARGGGTHYADSVKGRFTISRDNAKNTVYLQMNSLKPEDTAVYYCNDVAHRQAQGAWGPGTQVTVSS | low polyreactivity |
| QVQLVESGGGLVQAGGSLRLSCAASGSTFFKYGMGWYRQAPGKERELVATISSRGGNTSYADSVKGRFTISRDNAKNTVYLLMNSLKPEVTAVYLCNAKLVYVGDTTTWGQGTQVTVSS | low polyreactivity |
| QVQLVESGVGLVQAGGSLLLSCAASGFISGSYAIGWYRQAPGKERELVADISRRGSSTYYADSVKGRFTISRDNAKNTVYLQMNSLKPEDTAVYVCNAVPYGNGAMDYWGQGTQVTVSS | high polyreactivity |
| QEQLQESGVGQVQAGGSLLLSCAASGNIIRYYYMGWYRQAPGKERELVAAITYGTSTNYADSVKGRFTISRDNAKNSVYLQINSLKPEDTAVYYCAATAYWFYAKYYYWGQGTQVTVSS | high polyreactivity |
| QDQHVESGGGLVQAGGSLRLSCAASGLIFYYNMGWNRQAPRKERELVAAISSSGGSTSYADSVKGRFTISRDNAKNTVYLQMNSLKPEDTAVYYCAADSYPAYLGFVGFDYWGQGTQVTVSS | low polyreactivity |
| QVQLVESGGGLVQAGGSLRLSCAASRFIFYSNAMGWYRTAPGKERELVASITGDGGTTYYADSVKGRFTISRDNAKNNVYLQMNSLKPEDTAVYYCAKDYIYRGYYTDFRYEDYDYWGQGTQVTVSS | low polyreactivity |
| QVQLVESGGGLVQAGGSLRLSCAASGRTFFKYAMGGYRQAPGKERELVAAITGRGDRTYYADSVKGRFTISRDNAKNTVYLQMNSLKPEDTAVYYCAAGAPAHHASFYYWGQGTQVTVSS | high polyreactivity |
| QVQLVESGGGLVQAGGSLRLSCAASGRIFRQYAMGWYRQAPGKERELVAAITSGGSTNYADSVKGRFTISRDNAKNTVYLQMNSLKPEDTAVYYCNAAGGTRSGVQYDYWGQGTQVTVSS | low polyreactivity |
| QVQLVESWGGLVQAGGSLRLSCAASGSIFSDYAMGWYRQARGKERELVAAITQSGGSTYADSVKGRFTISRDNAKNTVYLQMNSLKPDDTAVYYCAADEVPGFGYPPYPWFDYWGQGTQVTVSS | low polyreactivity |
| QVQLVESGGGLVQAGGSLRLSCAASGSIIYYAMGWYRQAPGKEREFVAAITKSGGSTYYADSVKGRFTFSRDNAKNTVYLQMNSLKPEDTAVYYCAARGTWAGFYYWGQGTQVTLSS | high polyreactivity |
| QFQLVESGGGLDQAGGSLRLSCAASGITFGNYAMGWYRQAPGKERELVAAITGSGGRTNYADSVKGRFTISRDNAKNTVYLQMNSLKPEDTAVYYCNRRQYGRKKQYDYWGQGTQVTVSS | high polyreactivity |
| QVQLVDSVGGLVQAGGSLRLSCAASGFTFYYNAMGLYRQAPGKERELVAAITSSGGSTYYADSVKGRFTISRDNAKNTVYLQMNSLKPEDTAVYYCAAVVYYRGYTYNYWGQGTQVTVSS | high polyreactivity |
| QVQLVESGGGLFQAGGSLRLSCAAYGRTFYVYALGWYRQAPGKEREFVAAITSSGGSTYYADSVKGRFTISRDNAKNTVYLQMNSLKPEDTAVYYCAADDWDWENDYWGQGTQVTVSS | low polyreactivity |
| QVQLVESGGGLVQAGCSLRLSCAASGFILNWYAMGCYRQAPGKERELVAAISWTTSDTYYADSVKGRFTISRDNAKHTVYLQMNSLKPEDQAVYYCATQGYISFPPPAYYEYNYWGQGTQETVSS | low polyreactivity |
| QVQLVESGGGLVQAGGSLRLSCAASGSNIDGYAMGRYRQAPGKEREFLAAISFSSASTYYADSVKGRFTISRDNAKNSVYLQMNSLKPEDTAVYYCNADFFESGGSIEYDSSGQGTQVTVSS | low polyreactivity |
| QVQLVESVGGLVQAGGSLRLSCAASGSTISLYKGWYRQAPGNETELVAAITYSGGRTYYADSVKGRFTISRDNAKNTVYLQMNSLKPEDTAVYYCATVFNDLTVYEYWSRFDYWGQGTQVTVSS | low polyreactivity |

| Sequence | polyreactivity (PSR sort gate) |
| --- | --- |
| QVQRVESGGGLVQAGGSLRLSCAASGSIFGPYAMVWYRQAPGKERELVAAITWSVGSTYYADSVKGRFTISRDNAKTTVYLQMNSLKPEDTAVYYCNAGVLGVYTSYNGDDYWGQGTQVTVSS | low polyreactivity |
| QVQLVESGGGLVQAGGSLRLSCAASGSTFQGYALRWYRQAPGKERELVAAITKRSGRTYYADSVKGRFTISRDNAKNTVYLQMNSLKPEDTAVYYCAKVTSYSEYDYWGQGTQVTVSS | high polyreactivity |
| QVQLVESGGGLVQAGGSLRLSCAASGSIFEYNAMGWYRQAPGKERELVAAISWSSGTTYYADSVKGRFTISRDNAKNTVYLQMNSLKPEDTAVYYCAAVRWYVPGDVGYWGQGTQVTVSS | low polyreactivity |
| QVQLVESGGGLVQAGGSLRLSCAASGFTFYDYAMGWYRQAPGKERELVAAISDSGGITYYADSVTGRFTISRDNAKNTVYLQMNSLKPEDTAVYYCAADFATPGPEYDYWGQGTQVTVSW | low polyreactivity |
| QVQLVESGGGLVQAAGSLRLSCAASGFTFLRYAMGWYRQAPGKERELVAGITKSGGTTYYADSVKGRFTISRDNAKNTVYLQMNSLKPEDTAVYYCNALYSRRRRPYTDDYDYWGQGTQVTVSS | high polyreactivity |
| QVQLVESGGGLVQAGGSLRLSCAASGSTWWYDMGSYRQAPGKERELVASISSGDSTNYADSVKGRFTISRDNAKNTVYLQMNSLKPEDTAVYYCAADFNFGFVWGDDYDYWGQGTQVTVSS | low polyreactivity |
| QVQLVESGGGLVQAGGSLRLSCAASGGIFPYYAMGWYSQAPGKEMELVAGISQNDGRTYYADSVKGRFTISRDNAKNTVYLQMNSLKPEDTAVYYCATVYWYPRYGYWGQGTQVTVSS | low polyreactivity |
| QVQLVESWGGLVQAGGSLRISCAASGRTFPDYAMGWYRQAPGKERELVAAISSGGGTYYADSVKGRFTISRDNAKNTVFLQMNSLKPEDTAVYYCAATGVPGWVGFDYCGQGTQVTVSS | low polyreactivity |
| QVQLVESGGGLVQAGGSLRLSCAASGYTFYAYAMGWYRQAPGKERELVATISSGGRTYYADSVKGLFTISRDNAKNTVYLQMNSLKPEDTAVYYCAARKTRYISRFDYWGQGTQVTVSS | high polyreactivity |
| QVQLVESGGGLVQAGGSLRLSCAASGRIIRINAMGSYRPAPGKERELVAAITRGGTTYADSVKGRFTISRDNAKNTVYLQMTSLIPEDTSVYNCNARTGRSPSGFRYWGQGTQVTVSS | high polyreactivity |
| QDQLVESVGCLVQAGGSLRLSCAATGRIFQSYAMGWYRQAPGKERELVAGIRAGGGRTYYADSVKGRFTISRDIAKNTVYVQMNSLKPEDTAVDYCAARFVGSFYAPFDYWGQGTLVTVSS | low polyreactivity |
| QVQLVESGGGLVQAGGSLRLSCAASGSIFDNAMGWYRQAPGKERELVAAISLSGSRTYYADSVKGRFTISRDNAKNTVYLQMNSLKPEDTAVYYCNTELVYYSTYDYWGQGTQVTVSS | low polyreactivity |
| QVQLVESGGGLVQAGGSLRLSCAASGGTFYVKDMAWYRQAPWNERDLVATITYSGTSTYYADSVKGRFTISRDNAKNTVYLQMKSLKPEDTAVYYCATDVLLYFEPVNLDYWGQGTQVTVSS | low polyreactivity |
| QEQLQESGGGQVQDGGSLRMSCAASGSISYASGLCWYSQEQGKEREFVASIDPGAITNYADSVKGRFTISHDNAKNTVYLQMNRLKPEDTAVYYCAADGHGGYGYWGQGTQVTVSS | high polyreactivity |
| QVQLVESGGGLVQAGGSLRLSCAASGSTIDTYAMGWYRQAPGKERELVAAIRYTGGRTYYADSVKGRCTISSDNAKNTVYLHMNSLKPEDTAVYYCNADGTKWVRETYDYWGQGTQVTVSS | low polyreactivity |
| QVQLVESGGGLVQAGGSLRLSCAASGRTFFTYAMGWYRQAPGKERELVAAITWSGGSTYYADSVKGRFTISRDNAKNTVYLQMNSLKPEDTAVYYCAADGSVAYYSAFGSVQIWYYYWGQGTQVTVSS | low polyreactivity |
| QVQLVESGGGLVQAGGSLRLSCAASGRTFHYYAMVWYRQAPWKERELVAGITAGGSTYYADSVKGRFTISRDNAKNTVYLLMNSLKPEDNSGYYCAADRSYYGYGYWGKGTQVTVSS | low polyreactivity |
| QVQLVESGGGLVQAGGSLRLSCAASGSTFSPNDMGWYRQAPGKERELVADNSNYADSVKGRFTISRDNAKNTVYLQMNSLKPEDTAVYYCAAEWRGDRYRLYVVSWWYDYWGQGTQVTVSS | low polyreactivity |
| QVHLVESGGGLVQAGGSLRLSCAASGGIFYAYDMGWYRQAPGKERELVAAITWTGGTTYYADSVKGRFTISRDNAKKTVYLLMNSLKPEDTAVYYCAADDGTNSTARDKDDYYYWGQGTEVTVSS | low polyreactivity |
| QVQLVESGGGLVQAGGSLRLSCAASGRTFWENAMGWYRQAPGKERELVAAISGDSGSTYYADSVKGRFTISRDNAKNTVYLQMNSLKPEDTAVYYCAADSDRDDSYPYYYWGQGTQVTVSS | low polyreactivity |
| QVQLVESVGGLVQAGGSLRLSCAASGSTFDDNAMGWYRQAPGKERELVASITYRGGSTYYADSVKGRFTISRDNAKNTVYLQMNSLKPEDTAVYYCAKGHYFKYDYWGQGTQVTVSS | low polyreactivity |
